According to publication PMC12269843, “The molecular basis of T cell receptor recognition of citrullinated tenascin-C presented by HLA-DR4” (The Journal of Biological Chemistry, 2025):
Where no end group is shown, it is not given here. [ ]: non-standard residue; d: D form. Cit = NC(=O)NCCC[C@H](N)C(=O)O

How the values were obtained:
Experiment in all cases: fluorescence polarisation; competition: serial dilution of peptide from 500 μM against 20 nM TAMRA-HA for 100 nM HLA-DRB1 protein with 20 nM HLA-DM; 100 mM trisodium citrate pH 5.4, 50 mM NaCl, 5 mM EDTA; 37 °C, read after 24, 48 and 72 h
[1] = target: HLA-DRB1*01:01 protein (human)
[2] = target: HLA-DRB1*04:01 protein (HLA-DRA*01:01/HLA-DRB1*04:01) (human)
[3] = target: HLA-DRB1*14:02 protein (human)
[4] = target: HLA-DRB1*04:05 protein (human)
[5] = target: HLA-DRB1*04:04 protein (human)

IC50 [1]: 0.8 µM
IC50 [2]: 1.1 µM
IC50 [3]: 1.3 µM
fold weaker affinity against HLA-DRB1*01:01, *04:01 and *14:02 [4]: > 4 fold
IC50 [5]: > 300 µM
Binder: D[Cit]Y[Cit]LNYSLPTG [TNC1014,1016cit peptide]
